Values belong to the binder of their own block, whether it stands above or below them.
Tests used:
Human PD-L1 antigen = target: T1, Human PD-L1 antigen (human, UniProt Q9NZQ7 19-238); assay: BLI (Octet), His-tagged VHH on anti-penta-His tips, soluble human PD-L1
T1 construct: also called PD-L1 protein

Human CD33 = Human CD33 (human, UniProt P20138 18-259); assay: BLI (Octet) as in Example 1, His-tagged VHH, human CD33
human LAG3 = target: T2, human LAG3 (human, UniProt P18627 29-450, limits assumed); assay: BLI (Octet) as in Examples 1-4, His-tagged VHH, human LAG3
T2 construct: also called hLAG3
T2 sequence: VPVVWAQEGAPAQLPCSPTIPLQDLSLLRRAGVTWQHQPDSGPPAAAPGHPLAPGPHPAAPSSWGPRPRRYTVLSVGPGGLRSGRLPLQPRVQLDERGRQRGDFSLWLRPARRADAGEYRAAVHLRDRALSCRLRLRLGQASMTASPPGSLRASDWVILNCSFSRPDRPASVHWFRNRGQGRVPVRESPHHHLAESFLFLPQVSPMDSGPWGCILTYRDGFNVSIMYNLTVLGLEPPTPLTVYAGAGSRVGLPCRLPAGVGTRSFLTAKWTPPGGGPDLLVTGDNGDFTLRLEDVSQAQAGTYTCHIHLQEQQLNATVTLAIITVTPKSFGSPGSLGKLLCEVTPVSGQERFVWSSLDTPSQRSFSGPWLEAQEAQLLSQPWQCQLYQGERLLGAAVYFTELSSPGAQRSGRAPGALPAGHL

[1] = target: T3, human CD47 (R & D systems) (human, UniProt Q08722 19-139); assay: BLI (Octet), His-tagged VHH on anti-penta-His tips, soluble human CD47
T3 construct: The Octet analyte was bought (R&D Systems); also called Human CD47 antigen; hCD47

T1 sequence (Q9NZQ7 19-238 limits assumed): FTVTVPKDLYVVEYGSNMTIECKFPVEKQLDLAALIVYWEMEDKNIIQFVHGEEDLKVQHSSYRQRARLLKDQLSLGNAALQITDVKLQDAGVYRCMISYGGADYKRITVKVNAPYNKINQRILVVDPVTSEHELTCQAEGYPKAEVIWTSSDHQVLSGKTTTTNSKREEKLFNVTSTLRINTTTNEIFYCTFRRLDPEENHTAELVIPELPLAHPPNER
Chain of Human CD33 (P20138 18-259 limits assumed): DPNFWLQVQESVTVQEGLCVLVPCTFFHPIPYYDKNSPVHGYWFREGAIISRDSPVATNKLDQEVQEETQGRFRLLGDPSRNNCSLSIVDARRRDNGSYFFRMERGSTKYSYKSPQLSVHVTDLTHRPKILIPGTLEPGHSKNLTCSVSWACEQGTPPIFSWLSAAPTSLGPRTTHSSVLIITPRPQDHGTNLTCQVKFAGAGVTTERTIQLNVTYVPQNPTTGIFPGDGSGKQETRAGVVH

B3: 33-2 (VHH)
VHH: QVQLVESGGGLVQAGGSLRLSCTASANILRTAPMAWYRQAPGKQREFVALITADGTTDYQESVKGRFTTSRDNAKNTVYLQMNSLQSEDTARYFCKVYSYWGQGTQVTVSS
notes: not shown: C-terminal His-tag
Kd (Human CD33): 0.753 nM
koff (Human CD33): 0.0006 s⁻¹
kon (Human CD33): 800000 M⁻¹ s⁻¹

B4: 33-1 (VHH)
VHH: QVQLVESGGGLVQTGGSLRLSCAASGGTFTNYAMGWFREAPGKEREFVAGINNNGDTLYNTNSVKGRFTISRDNAKNTVYLHMNSLKLEDTAVYYCAANLKGASWYSANYDYWGQGTQVTVSS
notes: not shown: C-terminal His-tag
Kd (Human CD33): 1.01 nM
koff (Human CD33): 0.00081 s⁻¹
kon (Human CD33): 800000 M⁻¹ s⁻¹

B6: hLG9 (VHH)
VHH: EVQLLESGGGLVQPGGSLRLSCAASGSTIDDYPMSWFRQAPGKGREGVAAIDDSDESTYYADSVKGRFTISRDNSKNTLYLQMNSLRAEDTAVYYCARGAIFMIDGVDVFLTYYYDSWGQGTLVTVSS
notes: also called LG9H; not shown: C-terminal His-tag
Kd (human LAG3): 2.71 nM
koff (human LAG3): 0.000298 s⁻¹
kon (human LAG3): 110000 M⁻¹ s⁻¹

B10: A09-08 (VHH)
VHH: QVQLVESGGGLVQAGGSLRLSCAASGYGVNSYALGWFRQAPGKEREFVAAISRSGGNINYADSAKGRFTISRDNFKNTTYLQMSSLKPEDTAVYYCAAHYLLLPSYISTSTNMYNYWGQGTQVTVSS
notes: not shown: C-terminal His-tag
Kd [1]: 0.063 nM
koff [1]: 2.1e-06 s⁻¹
kon [1]: 33300 M⁻¹ s⁻¹

B11: A09-31 (VHH)
VHH: QVQLVESGGGLVQAGGSLRLSCAASGYGVNSYALGWFRQAPGKEREFVAAISRSGGNINYADSAKGRFTISRDNFKNTTYLQMSSLKPEDTAVYYCAAHYLLLPSYIATAIKMYNYWGQGTQVTVSS
notes: not shown: C-terminal His-tag
Kd [1]: 19 nM
koff [1]: 0.000522 s⁻¹
kon [1]: 27500 M⁻¹ s⁻¹

B12: A09-61 (VHH)
VHH: QVQLVESGGGLVQAGGSLRLSCAASGYGVNSYALGWFRQAPGKEREFVAAISRSGGNINYADSAKGRFTISRDNFKNTTYLQMSSLKPEDTAVYYCAAHYLLLPSYISFASKMYNYWGQGTQVTVSS
notes: not shown: C-terminal His-tag
Kd [1]: 1.77 nM
koff [1]: 0.00011 s⁻¹
kon [1]: 62100 M⁻¹ s⁻¹

B13: A09-006 (VHH)
VHH: QVQLVESGGGLVQAGGSLRLSCAASGIRFFGSALGWFRQAPGKEREFVAAISRSGGNINYADSAKGRFTISRDNFKNTTYLQMSSLKPEDTAVYYCAAHYLLLPSYISTSTNMYNYWGQGTQVTVSS
notes: also called A09-06; not shown: C-terminal His-tag
Kd [1]: 0.0114 nM
koff [1]: 1.09e-06 s⁻¹
kon [1]: 87000 M⁻¹ s⁻¹

B14: PL11 (VHH)
VHH: QVQLVESGGGLVQAGGSLRLSCAASGRTFNTYDMGWFRRAPGKEREFVAGIDWYTTNTYYADSVKGRFTISRDNAKNTVYLQMRSLKPEDTAVYYCAAGIRSTATITGQADYWGQGAQVTVSS
notes: not shown: C-terminal His-tag
Kd (Human PD-L1 antigen): 19 nM
koff (Human PD-L1 antigen): 0.000522 s⁻¹
kon (Human PD-L1 antigen): 27500 M⁻¹ s⁻¹

B16: 33-13 (VHH)
VHH: QVQLVESGGGLVQAGGSLRLSCAASGSISSINSMNWYRQAPGKQREKVAGINSSGDTNYVDSVKGRFTISRDNAERTTYLQMNNLKPEDTGLYYCNADPRPWPNDVAFGSWGQGTRVTVSS
notes: not shown: C-terminal His-tag
Kd (Human CD33): 0.409 nM
koff (Human CD33): 0.0005 s⁻¹
kon (Human CD33): 1e+06 M⁻¹ s⁻¹

B18: A09-10 (VHH)
VHH: QVQLVESGGGLVQAGGSLRLSCAASGGGRTFSNYALGWFRQAPGKEREFVAAISRSGGNINYADSAKGRFTISRDNFKNTTYLQMSSLKPEDTAVYYCAAHYLLLPSYISTSTNMYNYWGQGTQVTVSS
notes: not shown: C-terminal His-tag
Kd [1]: 0.0267 nM
koff [1]: 1.14e-06 s⁻¹
kon [1]: 42700 M⁻¹ s⁻¹

B23: 33-4 (VHH)
VHH: QVQLVESGGGSVQPGGSLRLSCEASGSIFSIAHMGWYRQAPGKQRELVAVISSGGRTNYVDSVKGRFTISRDNAKNTVYLQMNSLKAEDTAVYFCNVAVVGGPRFDYWGQGTQVTVSS
notes: not shown: C-terminal His-tag
Kd (Human CD33): 0.995 nM
koff (Human CD33): 0.0009 s⁻¹
kon (Human CD33): 900000 M⁻¹ s⁻¹

B26: 33-8 (VHH)
VHH: EVQLMESGGGLVQAGGSLRLSCAASGRTVSTYVMGWFRQAPGKEREFVAEINRIGDTLYNRTSVKGRFTISRDNAKNTVYLQMNSLEPEDTAVYSCAARVIGTSTYNYWGQGTQVTVSS
notes: not shown: C-terminal His-tag
Kd (Human CD33): 0.511 nM
koff (Human CD33): 0.0007 s⁻¹
kon (Human CD33): 1.1e+06 M⁻¹ s⁻¹

Further lines, results first:

Kd (Human PD-L1 antigen): 0.0177 nM
koff (Human PD-L1 antigen): 1.1e-06 s⁻¹
kon (Human PD-L1 antigen): 62100 M⁻¹ s⁻¹
B1: PL14 (VHH)
VHH: EVQLVESGGGLVQAGGSLRLSCAASGSTSGIYDMGWYRQAPGKLREVVGIITSGGTTNYADFAKGRFTISRDNAKNMMYLQMNSLKPEDTAVYYCNIRTRLIIWGQGTQVTVSS
notes: not shown: C-terminal His-tag

Kd (Human CD33): 0.136 nM
koff (Human CD33): 0.000109 s⁻¹
kon (Human CD33): 800000 M⁻¹ s⁻¹
B2: 33-14 (VHH)
VHH: QVQLVESGGGLVQAGDSLKLSCAASGRTSLILAMAWWRQAPGKEREFAGRIWWNNDMTRYSDSVKGRFTISKDNTKNMVYLRMDNLGPEDTAVYYCEADLIGGSRGWGQGTQVTVSS
notes: not shown: C-terminal His-tag

Kd (human LAG3): 0.114 nM
koff (human LAG3): 1.09e-05 s⁻¹
kon (human LAG3): 87000 M⁻¹ s⁻¹
B5: LG19 (VHH)
VHH: QVQLVESGGGLVQPGGSLRLSCAASGFTLDYYAIGWFRQAPGKEREGVSCISSSDGSTYYADSVKGRFTISRDNAKNTVYLQMNSLKPEDTAVYYCAADRRGSCRQYDYWGQGTQVTVSS
notes: not shown: C-terminal His-tag

Kd (human LAG3): 0.0792 nM
koff (human LAG3): 2.91e-05 s⁻¹
kon (human LAG3): 367000 M⁻¹ s⁻¹
B7: LG99 (VHH)
VHH: EVQLLESGGGLVQPGGSLRLSCAASGSTIDDYPMSWFRQAPGKGREGVAAIDDSDESTYYADSVKGRFTISRDNSKNTLYLQMNSLRAEDTAVYYCARGALFMIDGVDVFLTYYFEFWGQGTLVTVSS
notes: not shown: C-terminal His-tag

Kd (human LAG3): 1.77 nM
koff (human LAG3): 0.00011 s⁻¹
kon (human LAG3): 62100 M⁻¹ s⁻¹
B8: LG9 (VHH)
VHH: EVQLVESGGGLVQPGGSLRLSCAASGSTIDDYPIGWFRQAPGKEREGVSCIDDSDESTYYADSVKGRFTISRDNAKNTVYLQMNSLKPEDTAVYYCARGAIFMIDGVDVFLTYYYDSWGQGTQVTVSS
notes: not shown: C-terminal His-tag

Kd (Human PD-L1 antigen): 2.67 nM
koff (Human PD-L1 antigen): 0.000114 s⁻¹
kon (Human PD-L1 antigen): 42700 M⁻¹ s⁻¹
B9: PL18 (VHH)
VHH: EVQLVESGGGLVQAGGSLRLSCAASGRTFNIYSMAWFRQAPGKEREFVVRINWNRGTTYYADSVKGRFTISRDNAKNTVYLQMSNLKPEDTAVYYCAARGSPSTIGAFTSASHYDYWGQGTQVTVSS
notes: not shown: C-terminal His-tag

Kd (Human PD-L1 antigen): 0.0114 nM
koff (Human PD-L1 antigen): 1.09e-06 s⁻¹
kon (Human PD-L1 antigen): 87000 M⁻¹ s⁻¹
B15: PL17 (VHH)
VHH: QVQLVESGGGLVQAGGSLRLSCAASGRTFNTYDMGWFRRTPGKEREFVAGMDWNTINTYYADSVKGRFTISRDNAKNTVYLQMRSLKPEDTAVYYCAAGIRSTAIITGQADYWGQGTQVTVSS
notes: not shown: C-terminal His-tag

Kd (human LAG3): 2.98 nM
koff (human LAG3): 9.82e-05 s⁻¹
kon (human LAG3): 33000 M⁻¹ s⁻¹
B17: LG-D8 (VHH)
VHH: QVQLVESGGGLVQPGGSLRLSCAASGFTFGKYAMSWVRQVPDKGLEWVSSISSSGRDTSYADSAKGRFTIFRNNAANTVYLQMDNLKLEDTGVYYCVKCLEVWATREYDGWGQGTQVTVSS
notes: not shown: C-terminal His-tag

Kd [1]: 0.0276 nM
koff [1]: 1.1e-06 s⁻¹
kon [1]: 39800 M⁻¹ s⁻¹
B19: hA09-10 (VHH)
VHH: EVQLVESGGGLVQPGGSLRLSCAASGGGRTFSNYALGWFRQAPGKEREFVAAISRSGGNINYADSVKGRFTISRDNAKNTVYLQMSSLRAEDTAVYYCAAHYLLLPSYISTSTNMYNYWGQGTQVTVSS
notes: also called humanized A09-10; not shown: C-terminal His-tag

Kd (Human PD-L1 antigen): 0.0271 nM
koff (Human PD-L1 antigen): 2.98e-06 s⁻¹
kon (Human PD-L1 antigen): 110000 M⁻¹ s⁻¹
B20: PL16 (VHH)
VHH: QVQLVESGGGLVQAGGSLRLSCAFSGGTFLTYSLGWFRQGPGKEREFVASINWSGYMTSYVDSVKGRFTISRDNAKNTVYLQMNSLKPEDTALYYCAAARTAIAAKRSSEFDYWGQGAQVTVSS
notes: not shown: C-terminal His-tag

Kd (human LAG3): 0.267 nM
koff (human LAG3): 1.14e-05 s⁻¹
kon (human LAG3): 42700 M⁻¹ s⁻¹
B21: LG22 (VHH)
VHH: EVQLVESGGGLVQPGGSLRLSCAASGFTLDYYAIGWFRQAPGKEREGVSCIINSDGSTYYADSVKGRFTISRDNAKNTVYLQMNSLKPEDTAVYYCATDRYSDCRGPYDYWGQGTQVTVSS
notes: not shown: C-terminal His-tag

Kd (human LAG3): 19 nM
koff (human LAG3): 0.000522 s⁻¹
kon (human LAG3): 27500 M⁻¹ s⁻¹
B22: LG6 (VHH)
VHH: EVQLVESGGGLVQAGGSLRLSCAVSGSIFSISTMGWYRQAPGKQRELVASITARGSADYADSVKGRFTISRDNAKNTVYLQMSSLKPEDTAVYYCNTDTRSTLYHYSWGQGTQVTVSS
notes: not shown: C-terminal His-tag

Kd (Human PD-L1 antigen): 630 nM
koff (Human PD-L1 antigen): 0.021 s⁻¹
kon (Human PD-L1 antigen): 33300 M⁻¹ s⁻¹
B24: PL2 (VHH)
VHH: QVQLVESGGGLVQAGGSLRLSCAVSGLTLSRYTMAWFRQAPGKEREFVAAIIRNSVSTFHEESVKGRFTISRDNVKNMMYLQMNTLKPEDTAVYYCATNVGPTGGFSLQSVQRYDAWGQGTQVTVSS
notes: not shown: C-terminal His-tag

Kd (human LAG3): 630 nM
koff (human LAG3): 0.021 s⁻¹
kon (human LAG3): 33300 M⁻¹ s⁻¹
B25: LG2 (VHH)
VHH: QVQLVESGGGLVQPGGSLRLSCAASGTIFSINAMGWYRQAPGKQRELVAIVTFGGSTNYADSVKGRFTISRDNAKNTVYLQMNSLKPEDTAVYYCSARNVQSPVQYHLAVWGQGTLVTVSS
notes: not shown: C-terminal His-tag

Source: patent publication US12723105 (BEIJING STARMAB BIOMED TECHNOLOGY, dated 2026)
